The source of these data is patent publication US20240287202A1 (XYPHOS BIOSCIENCES, published 2024).

Positions count from the first letter of the chain named. Names may count otherwise.

Experiment [1] addresses T1, Fc-iNKG2D.YA (NKG2D ectodomain Y152A fused to the C-terminus of human IgG1 Fc) (human, UniProt P26718 78-216).
T1 construct: range 78-216; it is not tied by words to this Fc fusion; not shown: human IgG1 Fc
T1 sequence: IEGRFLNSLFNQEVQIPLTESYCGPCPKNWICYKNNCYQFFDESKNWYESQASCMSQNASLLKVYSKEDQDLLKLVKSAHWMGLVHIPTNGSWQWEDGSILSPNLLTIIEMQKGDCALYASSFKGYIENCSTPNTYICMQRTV
Briefly: Octet BLI; Fc-iNKG2D.YA captured on AHC tips, two-fold dilution series from 50 nM. An excerpt:
(§1) The y-axes corresponding to binding responses were set to the same scale for all sensograms.

A further experiment has as its target T2, mouse NKG2D (mouse, UniProt O54709 94-232, limits assumed).
T2 construct: also called mouse wild-type NKG2D
T2 sequence (looked up): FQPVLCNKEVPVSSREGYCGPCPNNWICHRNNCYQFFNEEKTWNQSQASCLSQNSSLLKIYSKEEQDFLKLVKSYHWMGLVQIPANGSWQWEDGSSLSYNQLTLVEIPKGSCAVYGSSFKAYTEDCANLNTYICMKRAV
Briefly: ELISA on mouse NKG2D, absorbance against nM MicAbody. (In an ELISA, binding on a coated surface is turned into a signal by an enzyme label.)

Experiment [2] concerns the target T3, Fc-wtNKG2D (wild-type NKG2D ectodomain fused to the C-terminus of human IgG1 Fc) (human, UniProt P26718 78-216).
T3 construct: range 78-216; Dimeric secreted protein from Expi293 cells; also called Fc-NKG2D; not shown: human IgG1 Fc
T3 sequence: T1 sequence with A79Y
Briefly: Octet BLI; Fc-wtNKG2D captured on AHC tips, two-fold dilution series from 50 nM.
Source text: as §1
For orientation: Biolayer interferometry detects binding as a change in optical thickness at a sensor tip.

The target in experiment [3] is T1, Fc-iNKG2D.YA (NKG2D ectodomain Y152A …). Briefly: Octet BLI; Fc-iNKG2D.YA captured on AHC tips, two-fold dilution series of MicAbody from 50 nM.
Source text: as §1

The target in experiment [4] is T3, Fc-wtNKG2D (wild-type NKG2D ectodomain …). The experiment in a line: Octet BLI; Fc-wtNKG2D captured on AHC tips, two-fold dilution series of MicAbody from 50 nM.
Source text: as §1

B1: Rituximab (antibody, V domains shown)
VH: QVQLQQPGAELVKPGASVKMSCKASGYTFTSYNMHWVKQTPGRGLEWIGAIYPGNGDTSYNQKFKGKATLTADKSSSTAYMQLSSLTSEDSAVYYCARSTYYGGDWYFNVWGAGTTVTVSA
VL: QIVLSQSPAILSASPGEKVTMTCRASSSVSYIHWFQQKPGSSPKPWIYATSNLASGVPVRFSGSGSGTSYSLTISRVEAEDAATYYCQQWTSNPPTFGGGTKLEIKR
notes: also called Rituximab (ADCC-); Rituxumab (ADCC); copies: 2 + 2
B1: the binding result is on record as “no binding (tested: 50 nM (legend))” in experiment [1], “no binding (tested: about 300 nM)” with mouse NKG2D and “no binding (tested: 50 nM (legend))” in experiment [2].

B2: Rituximab.HC-U2S3 MicAbody (U2S3 A1-A2 domain fused to the C-terminus of the rituximab heavy chain) (bispecific antibody, IgG1)
heavy (part 1 of 2): QVQLQQPGAELVKPGASVKMSCKASGYTFTSYNMHWVKQTPGRGLEWIGAIYPGNGDTSYNQKFKGKATLTADKSSSTAYMQLSSLTSEDSAVYYCARSTYYGGDWYFNVWGAGTTVTVSAA
heavy (part 2 of 2): GGGSEPHSLSYDITVIPKFRPGPRWCAVQGQVDEKTFLHYDCGQKTVTPVSPLGKKLQVTTAWKAQNPVLREVVDILTEQLWDIQLENYTPKEPLTLQARMSCEQKAEGHSSGSWQFSFDGQIFLLFDSEKRMWTTVHPGARKMKEKWENDKVVATKLYLWSMGDCIGWLEDFLMGMDSTLEPS
light: QIVLSQSPAILSASPGEKVTMTCRASSSVSYIHWFQQKPGSSPKPWIYATSNLASGVPVRFSGSGSGTSYSLTISRVEAEDAATYYCQQWTSNPPTFGGGTKLEIK
notes: IgG1 kappa, D265A/N297A; also called HC-fused MicAbody; Rit.HCd.S3; not shown: human IgG1 heavy-chain constant region, ADCC-deficient; human kappa light-chain constant region
A word on the Kd: it is the free concentration of one partner at which half of the binding sites on the other are occupied at equilibrium, for simple one-to-one binding. Higher therefore signals lower affinity. In the case of B2, in experiment [3], binding was characterised by a dissociation constant (Kd) of 23 pM. Besides, in experiment [4], the binding result is recorded as “no binding (tested: 50 nM (legend))”.
